In the assay the target is HLA-A2.1 heavy chain with I125-labeled β2-microglobulin (heterotrimer dissociation assay) (human). Put plainly: dissociation of 125I-β2-microglobulin from the HLA-A2.1/peptide/β2m heterotrimer, HPLC gel filtration. (In general: SEC sorts molecules by how far they enter the pores of the column.)

“HTLV-1 Tax peptide (aa 11-19) (from UniProt P03409 11-19) (peptide; other documents disagree on this pair)” showed a T1/2 of 133 h.

These data come from patent publication US20060045884A1, “Vaccines for autoimmune and infectious disease” (Board of Regents, priority 2004, published 2006).
